In US20210388087A1 (Chugai, published 2021):

Target: T1, Human CD137 ECD (human)
T1 construct: also called 4-1BB
Assay: single mutant vs template dBBDu183H

T1 sequence (chain, as listed by the source limits assumed): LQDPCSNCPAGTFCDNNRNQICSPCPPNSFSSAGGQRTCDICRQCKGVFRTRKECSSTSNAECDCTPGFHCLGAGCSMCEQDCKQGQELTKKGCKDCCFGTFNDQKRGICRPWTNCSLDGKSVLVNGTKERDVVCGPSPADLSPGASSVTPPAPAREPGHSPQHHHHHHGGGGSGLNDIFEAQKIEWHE

Binder	fold change of affinity [fold]
H183/L072 VH P100eA (antibody, name in Kabat numbering, V domains shown) VH: QVQLVESGGGLVQPGRSLRLSCAASGFTFSNAWMHWVRQAPGKGLEWVAQIKDKGNAYAAYYAPSVKGRFTISRDDSKNSIYLQMNSLKTEDTAVYYCHYVHYASASTVLAAFGVDAWGQGTTVTVSS VL: DIVMTQSPLSLPVTPGEPASISCQASQELVHMNRNTYLHWYQQKPGQAPRLLIYKVSNRFPGVPDRFSGSGSGTDFTLKISRVEAEDVGVYYCAQGTSVPFTFGQGTKLEIK	0.5
H183/L072 VH S30E (antibody, name in Kabat numbering, V domains shown) VH: QVQLVESGGGLVQPGRSLRLSCAASGFTFENAWMHWVRQAPGKGLEWVAQIKDKGNAYAAYYAPSVKGRFTISRDDSKNSIYLQMNSLKTEDTAVYYCHYVHYASASTVLPAFGVDAWGQGTTVTVSS VL: DIVMTQSPLSLPVTPGEPASISCQASQELVHMNRNTYLHWYQQKPGQAPRLLIYKVSNRFPGVPDRFSGSGSGTDFTLKISRVEAEDVGVYYCAQGTSVPFTFGQGTKLEIK	0.6
H183/L072 VH Q50E (antibody, name in Kabat numbering, V domains shown) VH: QVQLVESGGGLVQPGRSLRLSCAASGFTFSNAWMHWVRQAPGKGLEWVAEIKDKGNAYAAYYAPSVKGRFTISRDDSKNSIYLQMNSLKTEDTAVYYCHYVHYASASTVLPAFGVDAWGQGTTVTVSS VL: DIVMTQSPLSLPVTPGEPASISCQASQELVHMNRNTYLHWYQQKPGQAPRLLIYKVSNRFPGVPDRFSGSGSGTDFTLKISRVEAEDVGVYYCAQGTSVPFTFGQGTKLEIK	0.5
H183/L072 VH S30A (antibody, name in Kabat numbering, V domains shown) VH: QVQLVESGGGLVQPGRSLRLSCAASGFTFANAWMHWVRQAPGKGLEWVAQIKDKGNAYAAYYAPSVKGRFTISRDDSKNSIYLQMNSLKTEDTAVYYCHYVHYASASTVLPAFGVDAWGQGTTVTVSS VL: DIVMTQSPLSLPVTPGEPASISCQASQELVHMNRNTYLHWYQQKPGQAPRLLIYKVSNRFPGVPDRFSGSGSGTDFTLKISRVEAEDVGVYYCAQGTSVPFTFGQGTKLEIK	1.2
H183/L072 VH Q50N (antibody, name in Kabat numbering, V domains shown) VH: QVQLVESGGGLVQPGRSLRLSCAASGFTFSNAWMHWVRQAPGKGLEWVANIKDKGNAYAAYYAPSVKGRFTISRDDSKNSIYLQMNSLKTEDTAVYYCHYVHYASASTVLPAFGVDAWGQGTTVTVSS VL: DIVMTQSPLSLPVTPGEPASISCQASQELVHMNRNTYLHWYQQKPGQAPRLLIYKVSNRFPGVPDRFSGSGSGTDFTLKISRVEAEDVGVYYCAQGTSVPFTFGQGTKLEIK	0.5
H183/L072 VH P100eL (antibody, name in Kabat numbering, V domains shown) VH: QVQLVESGGGLVQPGRSLRLSCAASGFTFSNAWMHWVRQAPGKGLEWVAQIKDKGNAYAAYYAPSVKGRFTISRDDSKNSIYLQMNSLKTEDTAVYYCHYVHYASASTVLLAFGVDAWGQGTTVTVSS VL: DIVMTQSPLSLPVTPGEPASISCQASQELVHMNRNTYLHWYQQKPGQAPRLLIYKVSNRFPGVPDRFSGSGSGTDFTLKISRVEAEDVGVYYCAQGTSVPFTFGQGTKLEIK	0
H183/L072 VH Q50F (antibody, name in Kabat numbering, V domains shown) VH: QVQLVESGGGLVQPGRSLRLSCAASGFTFSNAWMHWVRQAPGKGLEWVAFIKDKGNAYAAYYAPSVKGRFTISRDDSKNSIYLQMNSLKTEDTAVYYCHYVHYASASTVLPAFGVDAWGQGTTVTVSS VL: DIVMTQSPLSLPVTPGEPASISCQASQELVHMNRNTYLHWYQQKPGQAPRLLIYKVSNRFPGVPDRFSGSGSGTDFTLKISRVEAEDVGVYYCAQGTSVPFTFGQGTKLEIK	2.6
H183/L072 VH Q50D (antibody, name in Kabat numbering, V domains shown) VH: QVQLVESGGGLVQPGRSLRLSCAASGFTFSNAWMHWVRQAPGKGLEWVADIKDKGNAYAAYYAPSVKGRFTISRDDSKNSIYLQMNSLKTEDTAVYYCHYVHYASASTVLPAFGVDAWGQGTTVTVSS VL: DIVMTQSPLSLPVTPGEPASISCQASQELVHMNRNTYLHWYQQKPGQAPRLLIYKVSNRFPGVPDRFSGSGSGTDFTLKISRVEAEDVGVYYCAQGTSVPFTFGQGTKLEIK	0.3
H183/L072 VH S30F (antibody, name in Kabat numbering, V domains shown) VH: QVQLVESGGGLVQPGRSLRLSCAASGFTFFNAWMHWVRQAPGKGLEWVAQIKDKGNAYAAYYAPSVKGRFTISRDDSKNSIYLQMNSLKTEDTAVYYCHYVHYASASTVLPAFGVDAWGQGTTVTVSS VL: DIVMTQSPLSLPVTPGEPASISCQASQELVHMNRNTYLHWYQQKPGQAPRLLIYKVSNRFPGVPDRFSGSGSGTDFTLKISRVEAEDVGVYYCAQGTSVPFTFGQGTKLEIK	0.7
H183/L072 VH Q50V (antibody, name in Kabat numbering, V domains shown) VH: QVQLVESGGGLVQPGRSLRLSCAASGFTFSNAWMHWVRQAPGKGLEWVAVIKDKGNAYAAYYAPSVKGRFTISRDDSKNSIYLQMNSLKTEDTAVYYCHYVHYASASTVLPAFGVDAWGQGTTVTVSS VL: DIVMTQSPLSLPVTPGEPASISCQASQELVHMNRNTYLHWYQQKPGQAPRLLIYKVSNRFPGVPDRFSGSGSGTDFTLKISRVEAEDVGVYYCAQGTSVPFTFGQGTKLEIK	0.3
H183/L072 VH Q50H (antibody, name in Kabat numbering, V domains shown) VH: QVQLVESGGGLVQPGRSLRLSCAASGFTFSNAWMHWVRQAPGKGLEWVAHIKDKGNAYAAYYAPSVKGRFTISRDDSKNSIYLQMNSLKTEDTAVYYCHYVHYASASTVLPAFGVDAWGQGTTVTVSS VL: DIVMTQSPLSLPVTPGEPASISCQASQELVHMNRNTYLHWYQQKPGQAPRLLIYKVSNRFPGVPDRFSGSGSGTDFTLKISRVEAEDVGVYYCAQGTSVPFTFGQGTKLEIK	0.6
H183/L072 VH Q50M (antibody, name in Kabat numbering, V domains shown) VH: QVQLVESGGGLVQPGRSLRLSCAASGFTFSNAWMHWVRQAPGKGLEWVAMIKDKGNAYAAYYAPSVKGRFTISRDDSKNSIYLQMNSLKTEDTAVYYCHYVHYASASTVLPAFGVDAWGQGTTVTVSS VL: DIVMTQSPLSLPVTPGEPASISCQASQELVHMNRNTYLHWYQQKPGQAPRLLIYKVSNRFPGVPDRFSGSGSGTDFTLKISRVEAEDVGVYYCAQGTSVPFTFGQGTKLEIK	1.5
H183/L072 VH Q50K (antibody, name in Kabat numbering, V domains shown) VH: QVQLVESGGGLVQPGRSLRLSCAASGFTFSNAWMHWVRQAPGKGLEWVAKIKDKGNAYAAYYAPSVKGRFTISRDDSKNSIYLQMNSLKTEDTAVYYCHYVHYASASTVLPAFGVDAWGQGTTVTVSS VL: DIVMTQSPLSLPVTPGEPASISCQASQELVHMNRNTYLHWYQQKPGQAPRLLIYKVSNRFPGVPDRFSGSGSGTDFTLKISRVEAEDVGVYYCAQGTSVPFTFGQGTKLEIK	0.8
H183/L072 VH Q50S (antibody, name in Kabat numbering, V domains shown) VH: QVQLVESGGGLVQPGRSLRLSCAASGFTFSNAWMHWVRQAPGKGLEWVASIKDKGNAYAAYYAPSVKGRFTISRDDSKNSIYLQMNSLKTEDTAVYYCHYVHYASASTVLPAFGVDAWGQGTTVTVSS VL: DIVMTQSPLSLPVTPGEPASISCQASQELVHMNRNTYLHWYQQKPGQAPRLLIYKVSNRFPGVPDRFSGSGSGTDFTLKISRVEAEDVGVYYCAQGTSVPFTFGQGTKLEIK	0.8
H183/L072 VH Q50L (antibody, name in Kabat numbering, V domains shown) VH: QVQLVESGGGLVQPGRSLRLSCAASGFTFSNAWMHWVRQAPGKGLEWVALIKDKGNAYAAYYAPSVKGRFTISRDDSKNSIYLQMNSLKTEDTAVYYCHYVHYASASTVLPAFGVDAWGQGTTVTVSS VL: DIVMTQSPLSLPVTPGEPASISCQASQELVHMNRNTYLHWYQQKPGQAPRLLIYKVSNRFPGVPDRFSGSGSGTDFTLKISRVEAEDVGVYYCAQGTSVPFTFGQGTKLEIK	0.8
H183/L072 VH Q50T (antibody, name in Kabat numbering, V domains shown) VH: QVQLVESGGGLVQPGRSLRLSCAASGFTFSNAWMHWVRQAPGKGLEWVATIKDKGNAYAAYYAPSVKGRFTISRDDSKNSIYLQMNSLKTEDTAVYYCHYVHYASASTVLPAFGVDAWGQGTTVTVSS VL: DIVMTQSPLSLPVTPGEPASISCQASQELVHMNRNTYLHWYQQKPGQAPRLLIYKVSNRFPGVPDRFSGSGSGTDFTLKISRVEAEDVGVYYCAQGTSVPFTFGQGTKLEIK	2
H183/L072 VH Q50W (antibody, name in Kabat numbering, V domains shown) VH: QVQLVESGGGLVQPGRSLRLSCAASGFTFSNAWMHWVRQAPGKGLEWVAWIKDKGNAYAAYYAPSVKGRFTISRDDSKNSIYLQMNSLKTEDTAVYYCHYVHYASASTVLPAFGVDAWGQGTTVTVSS VL: DIVMTQSPLSLPVTPGEPASISCQASQELVHMNRNTYLHWYQQKPGQAPRLLIYKVSNRFPGVPDRFSGSGSGTDFTLKISRVEAEDVGVYYCAQGTSVPFTFGQGTKLEIK	1.7
H183/L072 VH P100eM (antibody, name in Kabat numbering, V domains shown) VH: QVQLVESGGGLVQPGRSLRLSCAASGFTFSNAWMHWVRQAPGKGLEWVAQIKDKGNAYAAYYAPSVKGRFTISRDDSKNSIYLQMNSLKTEDTAVYYCHYVHYASASTVLMAFGVDAWGQGTTVTVSS VL: DIVMTQSPLSLPVTPGEPASISCQASQELVHMNRNTYLHWYQQKPGQAPRLLIYKVSNRFPGVPDRFSGSGSGTDFTLKISRVEAEDVGVYYCAQGTSVPFTFGQGTKLEIK	0
H183/L072 VH Q50Y (antibody, name in Kabat numbering, V domains shown) VH: QVQLVESGGGLVQPGRSLRLSCAASGFTFSNAWMHWVRQAPGKGLEWVAYIKDKGNAYAAYYAPSVKGRFTISRDDSKNSIYLQMNSLKTEDTAVYYCHYVHYASASTVLPAFGVDAWGQGTTVTVSS VL: DIVMTQSPLSLPVTPGEPASISCQASQELVHMNRNTYLHWYQQKPGQAPRLLIYKVSNRFPGVPDRFSGSGSGTDFTLKISRVEAEDVGVYYCAQGTSVPFTFGQGTKLEIK	3.1
H183/L072 VH S30D (antibody, name in Kabat numbering, V domains shown) VH: QVQLVESGGGLVQPGRSLRLSCAASGFTFDNAWMHWVRQAPGKGLEWVAQIKDKGNAYAAYYAPSVKGRFTISRDDSKNSIYLQMNSLKTEDTAVYYCHYVHYASASTVLPAFGVDAWGQGTTVTVSS VL: DIVMTQSPLSLPVTPGEPASISCQASQELVHMNRNTYLHWYQQKPGQAPRLLIYKVSNRFPGVPDRFSGSGSGTDFTLKISRVEAEDVGVYYCAQGTSVPFTFGQGTKLEIK	0.4
H183/L072 VH P100eI (antibody, name in Kabat numbering, V domains shown) VH: QVQLVESGGGLVQPGRSLRLSCAASGFTFSNAWMHWVRQAPGKGLEWVAQIKDKGNAYAAYYAPSVKGRFTISRDDSKNSIYLQMNSLKTEDTAVYYCHYVHYASASTVLIAFGVDAWGQGTTVTVSS VL: DIVMTQSPLSLPVTPGEPASISCQASQELVHMNRNTYLHWYQQKPGQAPRLLIYKVSNRFPGVPDRFSGSGSGTDFTLKISRVEAEDVGVYYCAQGTSVPFTFGQGTKLEIK	0
